Test results published in publication PMC10060375, “Self assembling nanoparticle enzyme clusters provide access to substrate channeling in multienzymatic cascades” (Nature Communications, 2023).

Tests used:
[1] = substrate: O=C[C@H](O)COP(=O)(O)O; assay: purified protein; details: free enzyme, 30 °C, cosubstrates saturating, varied substrate inferred from pathway
[2] = substrate: O=C(O)[C@@H](CO)OP(=O)(O)O; assay: initial rates, plate reader, Michaelis-Menten fit; type: biochemical, Escherichia coli; details: free enzyme, 30 °C, substrate inferred from pathway
Description: initial rates, plate reader, Michaelis-Menten fit on Enolase (Eno)

[3] = substrate: O=C(O)[C@H](O)COP(=O)(O)O; assay: initial rates, plate reader, Michaelis-Menten fit; type: biochemical, Escherichia coli; details: free enzyme, 30 °C, forward direction
Description: initial rates, plate reader, Michaelis-Menten fit on Phosphoglycerate mutase (PGM)

[4] = substrate: O=C(CO)COP(=O)(O)O; assay: initial rates, plate reader, Michaelis-Menten fit; type: biochemical, Escherichia coli; details: free enzyme, 30 °C, forward direction inferred (only PGI and PGK stated as reverse), substrate inferred from pathway
Description: initial rates, plate reader, Michaelis-Menten fit on Triose phosphate isomerase (TPI)

[5] = substrate: CC(=O)C(=O)O; assay: initial rates, plate reader, Michaelis-Menten fit; type: biochemical, Escherichia coli; details: free enzyme, 30 °C, cosubstrate saturating, varied substrate inferred from pathway
Description: initial rates, plate reader, Michaelis-Menten fit on Lactate dehydrogenase (LDH)

B1: Glyceraldehyde-3-phosphate dehydrogenase (GPD) (Escherichia coli K-12) (protein)
chain: TIKVGINGFGRIGRIVFRAAQKRSDIEIVAINDLLDADYMAYMLKYDSTHGRFDGTVEVKDGHLIVNGKKIRVTAERDPANLKWDEVGVDVVAEATGLFLTDETARKHITAGAKKVVMTGPSKDNTPMFVKGANFDKYAGQDIVSNASCTTNCLAPLAKVINDNFGIIEGLMTTVHATTATQKTVDGPSHKDWRGGRGASQNIIPSSTGAAKAVGKVLPELNGKLTGMAFRVPTPNVSVVDLTVRLEKAATYEQIKAAVKAAAEGEMKGVLGYTEDDVVSTDFNGEVCTSVFDAKAGIALNDNFVKLVSWYDNETGYSNKVLDLIAHISK
- Km [1]: 3.494 ± 1.039 mM
- Vmax [1]: 0.6 µM/min
- kcat [1]: 3.2 s⁻¹
- kcat/Km [1]: 920 M⁻¹ s⁻¹

B2: Enolase (Eno) (Escherichia coli K-12) (protein)
chain: SKIVKIIGREIIDSRGNPTVEAEVHLEGGFVGMAAAPSGASTGSREALELRDGDKSRFLGKGVTKAVAAVNGPIAQALIGKDAKDQAGIDKIMIDLDGTENKSKFGANAILAVSLANAKAAAAAKGMPLYEHIAELNGTPGKYSMPVPMMNIINGGEHADNNVDIQEFMIQPVGAKTVKEAIRMGSEVFHHLAKVLKAKGMNTAVGDEGGYAPNLGSNAEALAVIAEAVKAAGYELGKDITLAMDCAASEFYKDGKYVLAGEGNKAFTSEEFTHFLEELTKQYPIVSIEDGLDESDWDGFAYQTKVLGDKIQLVGDDLFVTNTKILKEGIEKGIANSILIKFNQIGSLTETLAAIKMAKDAGYTAVISHRSGETEDATIADLAVGTAAGQIKTGSMSRSDRVAKYNQLIRIEEALGEKAPYNGRKEIKGQA
notes: full length, terminal His6 kept; E. coli BL21(DE3)
- Km [2]: 2.04 ± 0.072 mM
- Vmax [2]: 4.14 µM/min
- kcat [2]: 22.9 ± 3 s⁻¹
- kcat/Km [2]: 11200 ± 4300 M⁻¹ s⁻¹

B3: Phosphoglycerate mutase (PGM) (Escherichia coli K-12) (protein)
chain: MLVSKKPMVLVILDGYGYREEQQDNAIFSAKTPVMDALWANRPHTLIDASGLEVGLPDRQMGNSEVGHVNLGAGRIVYQDLTRLDVEIKDRAFFANPVLTGAVDKAKNAGKAVHIMGLLSAGGVHSHEDHIMAMVELAAERGAEKIYLHAFLDGRDTPPRSAESSLKKFEEKFAALGKGRVASIIGRYYAMDRDNRWDRVEKAYDLLTLAQGEFQADTAVAGLQAAYARDENDEFVKATVIRAEGQPDAAMEDGDALIFMNFRADRAREITRAFVNADFDGFARKKVVNVDFVMLTEYAADIKTAVAYPPASLVNTFGEWMAKNDKTQLRISETEKYAHVTFFFNGGVEESFKGEDRILINSPKVATYDLQPEMSSAELTEKLVAAIKSGKYDTIICNYPNGDMVGHTGVMEAAVKAVEALDHCVEEVAKAVESVGGQLLITADHGNAEQMRDPATGQAHTAHTNLPVPLIYVGDKNVKAVEGGKLSDIAPTMLSLMGMEIPQEMTGKPLFIVE
notes: as for B2
- Km [3]: 3.584 ± 1.138 mM

B4: Triose phosphate isomerase (TPI) (Escherichia coli K-12) (protein)
chain: MRHPLVMGNWKLNGSRHMVHELVSNLRKELAGVAGCAVAIAPPEMYIDMAKREAEGSHIMLGAQNVDLNLSGAFTGETSAAMLKDIGAQYIIIGHSERRTYHKESDELIAKKFAVLKEQGLTPVLCIGETEAENEAGKTEEVCARQIDAVLKTQGAAAFEGAVIAYEPVWAIGTGKSATPAQAQAVHKFIRDHIAKVDANIAEQVIIQYGGSVNASNAAELFAQPDIDGALVGGASLKADAFAVIVKAAEAAKQA
notes: as for B2
- Km [4]: 1.717 ± 0.236 mM
- Vmax [4]: 34.9 µM/min
- kcat [4]: 194 ± 12 s⁻¹
- kcat/Km [4]: 113000 ± 17000 M⁻¹ s⁻¹

B5: Lactate dehydrogenase (LDH) (Escherichia coli K-12) (protein)
chain: MKLAVYSTKQYDKKYLQQVNESFGFELEFFDFLLTEKTAKTANGCEAVCIFVNDDGSRPVLEELKKHGVKYIALRCAGFNNVDLDAAKELGLKVVRVPAYDPEAVAEHAIGMMMTLNRRIHRAYQRTRDANFSLEGLTGFTMYGKTAGVIGTGKIGVAMLRILKGFGMRLLAFDPYPSAAALELGVEYVDLPTLFSESDVISLHCPLTPENYHLLNEAAFEQMKNGVMIVNTSRGALIDSQAAIEALKNQKIGSLGMDVYENERDLFFEDKSNDVIQDDVFRRLSACHNVLFTGHQAFLTAEALTSISQTTLQNLSNLEKGETCPNELV
notes: full length, terminal His6 kept; E. coli BL21(DE3); EC 1.1.1.28
- Km [5]: 31.47 ± 6.901 mM
- Vmax [5]: 14.4 µM/min
- kcat [5]: 95.5 ± 10.4 s⁻¹
- kcat/Km [5]: 3040 ± 740 M⁻¹ s⁻¹
